Among the data in paper PMC7417313 (2020) are Kd values, retold here.

As a reminder, the Kd is a measure of binding affinity in units of concentration. Low readings indicate higher affinity, high ones lower affinity.

For this assay, the target named is C3b C3b (Homo sapiens, UniProt P01024). The assay is described as follows: SPR. On the technique in general: In SPR one partner is held on a chip, and binding of the other changes the refractive index at the surface.
Sequence of C3b C3b (P01024 566-670): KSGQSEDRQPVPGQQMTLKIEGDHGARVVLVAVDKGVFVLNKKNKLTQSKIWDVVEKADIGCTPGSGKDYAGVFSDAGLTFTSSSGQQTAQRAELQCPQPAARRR

B1: Factor H (protein)
chain: EDCNELPPRRNTEILTGSWSDQTYPEGTQAIYKCRPGYRSLGNVIMVCRKGEWVALNPLRKCQKRPCGHPGDTPFGTFTLTGGNVFEYGVKAVYTCNEGYQLLGEINYRECDTDGWTNDIPICEVVKCLPVTAPENGKIVSSAMEPDREYHFGQAVRFVCNSGYKIEGDEEMHCSDDGFWSKEKPKCVEISCKSPDVINGSPISQKIIYKENERFQYKCNMGYEYSERGDAVCTESGWRPLPSCEEKSCDNPYIPNGDYSPLRIKHRTGDEITYQCRNGFYPATRGNTAKCTSTGWIPAPRCTLKPCDYPDIKHGGLYHENMRRPYFPVAVGKYYSYYCDEHFETPSGSYWDHIHCTQDGWSPAVPCLRKCYFPYLENGYNQNYGRKFVQGKSIDVACHPGYALPKAQTTVTCMENGWSPTPRCIRVKTCSKSSIDIENGFISESQYTYALKEKAKYQCKLGYVTADGETSGSITCGKDGWSAQPTCIKSCDIPVFMNARTKNDFTWFKLNDTLDYECHDGYESNTGSTTGSIVCGYNGWSDLPICYERECELPKIDVHLVPDRKKDQYKVGEVLKFSCKPGFTIVGPNSVQCYHFGLSPDLPICKEQVQSCGPPPELLNGNVKEKTKEEYGHSEVVEYYCNPRFLMKGPNKIQCVDGEWTTLPVCIVEESTCGDIPELEHGWAQLSSPPYYYGDSVEFNCSESFTMIGHRSITCIHGVWTQLPQCVAIDKLKKCKSSNLIILEEHLKNKKEFDHNSNIRYRCRGKEGWIHTVCINGRWDPEVNCSMAQIQLCPPPPQIPNSHNMTTTLNYRDGEKVSVLCQENYLIQEGEEITCKDGRWQSIPLCVEKIPCSQPPQIEHGTINSSRSSQESYAHGTKLSYTCEGGFRISEENETTCYMGKWSSPPQCEGLPCKSPPEISHGVVAHMSDSYQYGEEVTYKCFEGFGIDGPAIAKCLGEKWSHPPSCIKTDCLSLPSFENAIPMGEKKDVYKAGEQVTYTCATYYKMDGASNVTCINSRWTGRPTCRDTSCVNPPTVQNAYIVSRQMSKYPSGERVRYQCRSPYEMFGDEEVMCLNGNWTEPPQCKDSTGKCGPPPPIDNGDITSFPLSVYAPASSVEYQCQNLYQLEGNKRITCRNGQWSEPPKCLHPCVISREIMENYNIALRWTAKQKLYSRTGESVEFVCKRGYRLSSRSHTLRTTCWDGKLEYPTCAKR
The molecule B1 yielded a Kd of 100 nM.
